Biological target: T1, hCD30L (human, UniProt P32971 63-234)
T1 sequence (looked up): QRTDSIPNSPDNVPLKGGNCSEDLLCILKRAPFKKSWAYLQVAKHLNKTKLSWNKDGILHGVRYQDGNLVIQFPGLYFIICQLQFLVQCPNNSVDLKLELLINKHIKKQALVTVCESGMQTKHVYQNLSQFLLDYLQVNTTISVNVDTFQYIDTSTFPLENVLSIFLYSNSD
Assay: competition ELISA: fixed concentration of OX40L01E07 pre-incubated with a concentration series of the competitor, then added to biotinylated hOX40L captured on neutravidin; OD450nm
Method: The binding of OX40L blocking Nanobodies to other TNF family members was tested in a competition ELISA.
Detection was done using sTMB (SDT Reagents, Baesweiler, Germany), the reaction was stopped with 1M HCl and absorbance was determined at 450 nm.

B1: OX40L01E07 (VHH)
VHH: EVQLVESGGGLVQAGGSLRLSCAASGRTFSSIYAKGWFRQAPGKEREFVAAISRSGRSTSYADSVKGRFTISRDNAKNTVYLQMNSLKPEDTAVYYCAAVGGATTVTASEWDYWGLGTQVTVSS
notes: monovalent Nanobody from E. coli; not shown: C-terminal c-myc and His6 tag
**Q.** Does B1 bind?
**A.** no binding
